Assays:
[1] = molecular target: T1, recombinant human VISTA (His-tagged) (human, UniProt Q9H7M9 33-194); assay: ELISA, target protein coated, A450 against log M of antibody
T1 construct: bought soluble protein (Sino Biological); also called hVISTA; human VISTA polypeptide

[2] = molecular target: T2, recombinant rat VISTA (His-tagged) (rat, UniProt A0ABK0L5H3 33-192); assay: SPR (Biacore), VISTA-HIS captured, antibody as analyte, 1:1 model; SPR (Biacore), rat VISTA
T2 sequence: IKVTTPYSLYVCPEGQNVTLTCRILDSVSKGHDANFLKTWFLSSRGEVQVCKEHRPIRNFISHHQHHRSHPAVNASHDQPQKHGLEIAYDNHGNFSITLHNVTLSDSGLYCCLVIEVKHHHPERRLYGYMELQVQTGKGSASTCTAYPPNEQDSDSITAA

B1: anti-VISTA clone 4M2-C12 IgG1 (antibody)
heavy: not shown
light: DIVITQTPAILSTSPGEKVTMTCRASSSVGYIHWYQQKPGSSPKPWIYATSNLASGVPARFSGSGSGTSNSLTITRVEAEDAATYYCQQWSSYPPITFGGGTKLEVKRTVAAPSVFIFPPSDEQLKSGTASVVCLLNNFYPREAKVQWKVDNALQSGNSQESVTEQDSKDSTYSLSSTLTLSKADYEKHKVYACEVTHQGLSSPVTKSFNRGEC
notes: mouse variable regions on human IgG1/kappa constant regions; also called V4; V4pr
EC50 (read off the curve) [1]: ~10 pM

B2: V4-C26 hIgG4 (antibody)
heavy: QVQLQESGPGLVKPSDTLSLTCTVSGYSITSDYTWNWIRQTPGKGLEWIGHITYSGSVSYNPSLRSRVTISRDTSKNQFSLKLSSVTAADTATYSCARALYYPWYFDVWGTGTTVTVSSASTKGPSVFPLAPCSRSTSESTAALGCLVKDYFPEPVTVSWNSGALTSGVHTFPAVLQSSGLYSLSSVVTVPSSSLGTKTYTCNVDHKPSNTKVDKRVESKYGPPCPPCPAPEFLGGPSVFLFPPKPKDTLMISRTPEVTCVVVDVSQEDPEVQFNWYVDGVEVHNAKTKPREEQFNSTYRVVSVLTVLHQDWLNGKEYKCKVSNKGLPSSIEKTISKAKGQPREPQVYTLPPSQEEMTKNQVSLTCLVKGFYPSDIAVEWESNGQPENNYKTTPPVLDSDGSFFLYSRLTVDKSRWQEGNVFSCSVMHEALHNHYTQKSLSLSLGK
light: EIVLTQSPATLSLSPGERATLSCRASSSVGYIHWYQQKPGQAPRPIIYTTSNRATGIPARFSGSGSGTDNTLTISSLEPEDSAVYYCQQWSSYPPITFGGGTKLEVKRTVAAPSVFIFPPSDEQLKSGTASVVCLLNNFYPREAKVQWKVDNALQSGNSQESVTEQDSKDSTYSLSSTLTLSKADYEKHKVYACEVTHQGLSSPVTKSFNRGEC
notes: human IgG4 (S228P)/kappa format; also called HMBD-002; HMBD-002-V4C26
Kd [2]: 382 pM

— patent US20250313631A1 (HUMMINGBIRD BIOSCIENCE PTE, published 2025)
